Results: patent US20240317874A1 (HIFIBIO HK, published 2024)

How the values were obtained:
[1] = target: T1, cynomolgus monkey OX40 protein expressed on the surface of cells (cynomolgus monkey); assay: flow cytometry (MFI) on 293T cells expressing cynomolgus monkey OX40
T1 construct: whole, on cells; On transiently transfected 293T cells

[2] = target: T2, human CD40 protein expressed on the surface of 293T cells (human, UniProt P25942 21-277); assay: flow cytometry on 293T cells transiently transfected with human CD40 (293T-hCD40), goat anti-human IgG PE, MFI
T2 construct: whole, on cells
Description: (§1) Then, after washing twice with PBS, the cells were incubated with the secondary goat anti-human IgG PE antibody (1:200; Abcam, Cat. ab98596) at room temperature for 30 minutes.

[3] = target: T3, human OX40 protein expressed on the surface of cells (human, UniProt P43489 29-277); assay: flow cytometry (MFI) on transfected 293T cells
T3 construct: also called hOX40
T3 sequence: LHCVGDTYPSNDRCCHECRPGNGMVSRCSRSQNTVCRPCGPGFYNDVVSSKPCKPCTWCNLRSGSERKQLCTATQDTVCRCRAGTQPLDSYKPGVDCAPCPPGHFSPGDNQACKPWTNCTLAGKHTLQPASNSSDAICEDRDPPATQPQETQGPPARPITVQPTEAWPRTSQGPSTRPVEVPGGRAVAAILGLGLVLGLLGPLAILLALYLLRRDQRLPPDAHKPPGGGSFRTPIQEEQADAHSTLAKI

[4] = target: T1, cynomolgus monkey OX40 protein …; assay: flow cytometry (MFI) on transfected 293T cells
[5] = target: T4, mouse OX40 protein expressed on the surface of 293T cells (mouse, UniProt P47741 20-272); assay: flow cytometry on 293T cells transiently transfected with mouse OX40, goat anti-human IgG PE, MFI
T4 construct: whole, on cells
T4 sequence (looked up): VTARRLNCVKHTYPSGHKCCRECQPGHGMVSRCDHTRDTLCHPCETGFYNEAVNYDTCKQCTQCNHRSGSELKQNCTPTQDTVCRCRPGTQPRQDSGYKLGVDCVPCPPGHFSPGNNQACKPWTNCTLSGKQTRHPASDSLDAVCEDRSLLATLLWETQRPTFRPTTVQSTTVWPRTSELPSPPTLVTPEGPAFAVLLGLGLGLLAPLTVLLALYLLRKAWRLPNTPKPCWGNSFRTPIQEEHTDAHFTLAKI
Description: as §1

[6] = target: T5, biotinylated OX40 recombinant protein (UniProt P43489 29-216, limits assumed, biotinylated); assay: ELISA, plate coated with the antibody, biotinylated OX40 recombinant protein titrated (x axis = its concentration in nM), OD 450nm
T5 construct: also called OX40 protein; Biotin-OX40
T5 sequence (looked up): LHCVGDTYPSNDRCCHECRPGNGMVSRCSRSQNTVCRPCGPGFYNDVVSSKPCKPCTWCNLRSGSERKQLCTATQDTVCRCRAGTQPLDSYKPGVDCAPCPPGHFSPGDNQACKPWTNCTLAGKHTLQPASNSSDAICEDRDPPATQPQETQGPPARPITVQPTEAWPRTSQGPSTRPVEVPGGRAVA
Description: The next day, the plate was blocked with 1% BSA (Sangon Biotech, catalog number A600332-0100) in PBST at 37° C. for 2 hours, and then a defined concentration of biotinylated OX40 recombinant protein was added.

[7] = target: T3, human OX40 protein expressed on the …; assay: flow cytometry (MFI) on 293T cells expressing human OX40
[8] = target: T3, human OX40 protein expressed on the …; assay: flow cytometry (MFI) on CD3/CD28-activated primary human CD4+CD3+ T cells, first donor
[9] = target: T6, recombinant human OX40-mFc protein (human, UniProt P43489 29-214); assay: BLI (Octet QKe), antibody on anti-human Fc sensor, OX40-mFc in solution, 25 C, pH 7.4, 1:1 model; Experiment A
T6 construct: Recombinant dimer (mFc-tagged); also called hOX40.mFc; recombinant human OX40 protein; not shown: mFc tag
T6 sequence: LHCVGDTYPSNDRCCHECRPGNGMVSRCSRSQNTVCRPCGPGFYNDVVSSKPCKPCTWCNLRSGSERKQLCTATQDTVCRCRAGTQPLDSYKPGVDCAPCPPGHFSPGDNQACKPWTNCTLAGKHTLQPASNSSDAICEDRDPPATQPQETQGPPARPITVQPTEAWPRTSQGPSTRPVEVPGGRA

[10] = target: T3, human OX40 protein expressed on the …; assay: flow cytometry (MFI) on CD3/CD28-activated primary human CD4+CD3+ T cells, second donor
Description: Activation of human T cells were evaluated using CD3⁺ T cells isolated from two human donors' peripheral blood mononuclear cells (hPBMCs) pre-activated using CD3/CD28 Dynabeads.

[11] = target: T1, cynomolgus monkey OX40 protein …; assay: flow cytometry (MFI) on activated primary monkey T cells, donor Lot #200107
[12] = target: T3, human OX40 protein expressed on the …; assay: cell-based or functional assay
[13] = target: T6, recombinant human OX40-mFc protein; assay: BLI (Octet QKe), antibody on anti-human Fc sensor, OX40-mFc in solution, 25 C, pH 7.4, 1:1 model; Experiment B
Description: The changes of binding signal were recorded, and the kinetic analysis of binding parameters were determined using the Model: 1:1 with the mass transfer limitation. The running buffer solution was prepared with PBS, pH 7.4, containing 0.1% BSA and 0.1% Tween 20. Prior to the kinetic binding experiment, the anti-human Fe capture sensor was rinsed with the running buffer, and the instrument was prewarmed to 25° C. […] The binding of OX40 protein and its antibodies was performed in duplicate with the running buffer at pH 7.4 and 25° C. In short, first, the anti-human Fc capture sensor was immersed in the running buffer for 300 seconds to set the first baseline. The sensor was then mixed with 200 nM test antibody solution for 600 seconds to load the antibody. The sensor was again immersed in the running buffer for 300 seconds to set the second baseline, and then associated with various concentrations of OX40 antigen for 900 seconds. Then dissociation was performed by immersing the sensor in the running buffer for another 900 seconds. In parallel, one sensor was selected as a reference, in which all loading, association, and dissociation steps were performed in the running buffer. […] The sensorgrams were analyzed by Fortebio data analysis software version 8.2 (ForteBio; Fremont, CA). First, the signals were subtracted from the negative control experiment, and compared to the baselines. The kinetic parameters were obtained by entirely fitting these specific sensorgrams with different antigen concentrations to the binding Model: 1:1.

[14] = target: T1, cynomolgus monkey OX40 protein …; assay: flow cytometry (MFI) on activated primary monkey T cells, donor M20Z013009
[15] = target: T1, cynomolgus monkey OX40 protein …; assay: flow cytometry (MFI) on activated primary monkey T cells, donor M20Z025008

T2 sequence (P25942 21-277): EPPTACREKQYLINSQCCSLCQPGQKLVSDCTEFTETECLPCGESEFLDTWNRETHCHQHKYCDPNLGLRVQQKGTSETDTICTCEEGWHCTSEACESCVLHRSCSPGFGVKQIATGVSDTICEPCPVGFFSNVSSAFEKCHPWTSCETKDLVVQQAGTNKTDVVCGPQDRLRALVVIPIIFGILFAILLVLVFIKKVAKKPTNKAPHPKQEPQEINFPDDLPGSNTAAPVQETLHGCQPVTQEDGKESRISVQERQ

EC50 [1]: 2.94 nM | binding result [2]: no binding (tested: 100 nM) | EC50 [3]: 2 nM | EC50 [4]: 2.9 nM | binding result [5]: no binding (tested: 100 nM) | EC50 (read off the curve) [6]: ~0.2 nM | EC50 [7]: 2.02 nM | EC50 [8]: 0.65 nM | Kd [9]: 4.5 nM | koff [9]: 0.00043 s⁻¹ | kon [9]: 97000 M⁻¹ s⁻¹ | EC50 [10]: 1.36 nM | EC50 [11]: 0.09 nM | CD16 signaling in CD16-NF-AT-Luc reporter Jurkat cells, EC50 (nM), E:T 1:1 [12]: 1.2 nM | CD16 signaling in CD16-NF-AT-Luc reporter Jurkat cells, EC50 (nM), E:T 3:1 [12]: 0.7 nM | CD16 signaling in CD16-NF-AT-Luc reporter Jurkat cells, EC50 (nM), E:T 6:1 [12]: 0.5 nM | CD16 signaling in CD16-NF-AT-Luc reporter Jurkat cells, EC50 (nM), E:T 12:1 [12]: 0.3 nM | Kd [13]: 4.4 nM | koff [13]: 0.00043 s⁻¹ | kon [13]: 97000 M⁻¹ s⁻¹ | EC50 [14]: 0.19 nM | EC50 [15]: 0.17 nM
B1: anti-OX40 antibody HFB10-1E1hG1 (antibody, human IgG1, kappa, V domains shown)
VH: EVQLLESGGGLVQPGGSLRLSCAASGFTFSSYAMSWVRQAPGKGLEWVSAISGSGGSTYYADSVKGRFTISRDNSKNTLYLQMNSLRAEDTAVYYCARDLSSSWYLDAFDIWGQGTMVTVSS
VL: DIQMTQSPSSVSASVGDRVTITCRASQGISSWLAWYQQKPGKAPKLLIYAASSLQSGVPSRFSGSGSGTDFTLTISSLQPEDFATYYCQQANSFPLTFGGGTKLEIKR
notes: also called HFB301001
